Results taken from patent US20230072640A1 (VANDERBILT UNIVERSITY, published 2023).

Target: E protein of YFV-17D virus (Yellow fever virus strain 17D, UniProt P03314 286-778)
Test: cell-based or functional assay

E protein of YFV-17D virus, sequence (P03314 286-778 limits assumed): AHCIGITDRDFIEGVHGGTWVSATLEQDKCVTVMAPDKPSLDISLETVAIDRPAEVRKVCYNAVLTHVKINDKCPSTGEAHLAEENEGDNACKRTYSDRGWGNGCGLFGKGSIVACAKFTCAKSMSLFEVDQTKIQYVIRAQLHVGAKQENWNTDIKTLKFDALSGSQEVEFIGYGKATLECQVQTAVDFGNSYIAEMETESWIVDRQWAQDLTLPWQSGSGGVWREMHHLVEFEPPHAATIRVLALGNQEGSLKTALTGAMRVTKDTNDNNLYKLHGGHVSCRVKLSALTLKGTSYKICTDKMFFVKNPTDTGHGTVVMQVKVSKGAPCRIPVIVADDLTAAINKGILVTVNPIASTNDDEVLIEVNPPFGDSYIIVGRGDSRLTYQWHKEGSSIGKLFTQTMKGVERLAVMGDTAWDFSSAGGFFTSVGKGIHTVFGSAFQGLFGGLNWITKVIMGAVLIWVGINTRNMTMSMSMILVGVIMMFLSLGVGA

B1: human monoclonal antibody YFV-136 (antibody, V domains shown)
VH: QVQLQESGPGLVKPSGTLSLTCAVSGGSISSSNWWSWVRQPPGKGLEWIGDIYHSGSTSYNPSLKSRVTISVDRSKNQFSLKLSSVTAADTAVYYCARAPLVNWYYFDYWGQGTLVTVSS
VL: QSVLTQPPSVSAAPGQKVTISCSGSSSNIGNNYVSWYQQLPGTAPKLLIYDNNKGPSGIPDRFSGSKSGTSATLGITGLQTGDEADYYCGTWDTSLSAGRVFGGGTKLTVL
IC50, focus reduction neutralization test (FRNT) of YFV-17D in Vero cells: < 10 ng/mL
